Consider 1 molecule from paper PMC8344021, “Discovery of Small Molecule Bak Activator for Lung Cancer Therapy” (Theranostics, 2021).

Several values for one entry are separate records, joined by “and”; a condition that tells them apart may be missing. Equal entries are not always repeated.

The target in this assay is T1, Bak (endogenous, mitochondria of A549 cells) (human (endogenous in A549)), Q16611.
T1 chain: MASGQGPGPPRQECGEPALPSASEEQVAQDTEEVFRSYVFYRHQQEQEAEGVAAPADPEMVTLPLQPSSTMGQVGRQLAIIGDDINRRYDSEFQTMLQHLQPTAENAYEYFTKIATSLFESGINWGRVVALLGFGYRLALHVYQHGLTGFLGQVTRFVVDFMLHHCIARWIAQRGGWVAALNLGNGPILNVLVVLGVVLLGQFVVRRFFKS
The assay can be described thus: cross-linking; A549 cells treated with BKA-073 (1 uM) for 24 h; mitochondrial fraction; 10 mM BMH in PBS pH 7.2 with 5 mM EDTA, 1 h at room temperature, quenched with DTT; SDS-PAGE and Western blot with a Bak antibody. The settings on record: remark: other sources report otherwise.

B1: Bak (endogenous, mitochondria of A549 cells), Q16611 1-211 (natural protein)
chain: MASGQGPGPPRQECGEPALPSASEEQVAQDTEEVFRSYVFYRHQQEQEAEGVAAPADPEMVTLPLQPSSTMGQVGRQLAIIGDDINRRYDSEFQTMLQHLQPTAENAYEYFTKIATSLFESGINWGRVVALLGFGYRLALHVYQHGLTGFLGQVTRFVVDFMLHHCIARWIAQRGGWVAALNLGNGPILNVLVVLGVVLLGQFVVRRFFKS
Regarding B1, the stoichiometry N was 2 and 3.

By stoichiometry N is commonly meant the number of molecules, sites or subunits per partner or assembly.
